Test results reported in US20210101970A1 (Pfizer, published 2021).
Values belong to the binder of their own block, whether it stands above or below them.

Assays:
[1] = molecular target: T1, human CXCR5 (human, UniProt P32302 1-372); experiment: cell-based or functional assay
T1 sequence: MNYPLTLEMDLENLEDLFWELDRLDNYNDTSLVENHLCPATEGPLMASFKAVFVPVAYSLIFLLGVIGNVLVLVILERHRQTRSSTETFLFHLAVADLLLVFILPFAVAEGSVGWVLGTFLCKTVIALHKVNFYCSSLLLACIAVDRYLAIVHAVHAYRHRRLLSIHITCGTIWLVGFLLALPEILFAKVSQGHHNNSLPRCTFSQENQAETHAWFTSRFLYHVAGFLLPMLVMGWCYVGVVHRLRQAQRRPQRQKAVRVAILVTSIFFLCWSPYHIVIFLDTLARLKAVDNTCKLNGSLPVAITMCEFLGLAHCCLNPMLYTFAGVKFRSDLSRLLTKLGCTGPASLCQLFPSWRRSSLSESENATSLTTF

[2] = molecular target: T2, cynomolgus monkey CXCR5 (cynomolgus monkey, UniProt P32302 1-372 (human entry)); experiment: cell-based or functional assay
T2 chain: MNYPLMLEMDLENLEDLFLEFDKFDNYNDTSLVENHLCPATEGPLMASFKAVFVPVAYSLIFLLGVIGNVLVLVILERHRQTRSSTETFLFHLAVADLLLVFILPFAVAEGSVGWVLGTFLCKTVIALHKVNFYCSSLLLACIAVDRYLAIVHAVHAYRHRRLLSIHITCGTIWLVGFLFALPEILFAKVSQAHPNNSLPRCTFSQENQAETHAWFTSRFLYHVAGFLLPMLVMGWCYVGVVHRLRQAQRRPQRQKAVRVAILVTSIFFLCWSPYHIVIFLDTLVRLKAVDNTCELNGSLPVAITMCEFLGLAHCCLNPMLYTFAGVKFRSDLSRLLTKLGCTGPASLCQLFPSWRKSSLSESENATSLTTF

[3] = molecular target: T1, human CXCR5; experiment: flow cytometry, human PBMC B cells
In short: (§1)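 Human and cynomolgus PBMCs stained with 4-fold serial antibody dilutions (11 points from 5000 ng/mL) plus Fc block, 2 h on ice, then lineage markers and anti-human Ig secondary 30 min at 4 °C. gMFI of binding population read by flow cytometry; EC50 from sigmoidal fit of equilibrium binding curves.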

[4] = molecular target: T1, human CXCR5; experiment: flow cytometry, human tonsil Tfh cells
Experimental: Following centrifugation, red blood cell lysis was performed on the pellet using an ammonium chloride lysis buffer. Platelets were removed using a low speed centrifugation (200×g) for 10 minutes in Phosphate-Buffered Saline (PBS)/2% FBS/2 mM Ethylenediaminetetraacetic acid (EDTA). CD4+ T cells were purified out of the TMC mixture using an EasySep™ Human CD4+ T Cell Enrichment Kit, according to the manufacturer's instructions ([…] Technologies, Vancouver, BC, Canada).
Following isolation, PBMCs were plated at a density of 1.0×10⁵ cells per well and CD4+ TMCs were plated at a density of 2.0×10⁵ cells per well in isolation buffer (PBS containing 1% FBS and 1 mM EDTA) in 96 well U-bottom plates. The plates were then centrifuged at 1500 rpm for 5 minutes at room temperature. PBMCs and CD4+ TMCs were resuspended in Fluorescence-activated cell sorting (FACS) buffer (PBS containing 1% FBS) containing human crystallized fragment Fc block (2 μL per well; Biolegend) and 4-fold serial dilutions of the antibodies (11-point dilution series, beginning at 5000 ng/mL for PBMCs and 312.5 ng/mL for CD4+ TMCs) and incubated on ice for 2 hours. PBMCs and CD4+ TMCs were then washed with FACS buffer 3 times and resuspended in 50-100 μL of FACs buffer containing fluorescent-conjugated antibodies for staining lymphocyte subsets and a fluorescent-conjugated secondary antibody against human Ig to detect CXCR5 monoclonal antibodies (mAbs). After incubation for 30 minutes at 4° C., PBMCs and CD4+ TMCs were washed with FACS buffer 2 times and resuspended in 125 μL of 0.5% paraformaldehyde (PFA) in PBS. Plates were stored at 4° C. until analysis by flow cytometry (BD LSRFortessa™ Cell Analyzer, BD Biosciences, Franklin Lakes, N.J.).
The cell binding titration curves were generated by plotting the gMFI of the antigen binding population against the log of CXCR5 antibody concentration. EC₅₀ values were determined using GraphPad Prism® (version 6.0, GraphPad Software, Inc, San Diego, Calif.) nonlinear-regression curve fits and a sigmoidal log of agonist dose-response model, according to the following equation

[5] = molecular target: T2, cynomolgus monkey CXCR5; experiment: flow cytometry, cynomolgus PBMC B cells
In short: as §1

[6] = molecular target: T3, mouse CXCR5 (mouse, UniProt Q04683 1-374); experiment: flow cytometry on cells expressing mouse CXCR5
T3 construct: also called mCXCR5
T3 sequence: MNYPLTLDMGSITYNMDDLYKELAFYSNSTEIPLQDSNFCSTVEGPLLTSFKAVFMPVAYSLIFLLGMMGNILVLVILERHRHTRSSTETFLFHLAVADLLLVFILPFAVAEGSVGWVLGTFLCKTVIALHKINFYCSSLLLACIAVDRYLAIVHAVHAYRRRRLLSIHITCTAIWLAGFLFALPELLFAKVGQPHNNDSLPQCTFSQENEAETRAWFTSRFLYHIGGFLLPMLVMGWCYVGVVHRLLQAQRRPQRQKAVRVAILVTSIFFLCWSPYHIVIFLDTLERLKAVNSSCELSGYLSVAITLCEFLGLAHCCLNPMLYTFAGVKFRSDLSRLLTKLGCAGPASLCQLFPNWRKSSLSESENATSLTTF

[7] = molecular target: T3, mouse CXCR5; experiment: FACS on cells expressing the CXCR5 construct
[8] = molecular target: T4, XC251; experiment: FACS on cells expressing the CXCR5 construct
T4 construct: whole, on cells; also called hCXCR5-mL3

[9] = molecular target: T5, XC252; experiment: FACS on cells expressing the CXCR5 construct
T5 construct: whole, on cells; also called hCXCR5-mL2

[10] = molecular target: T6, XC254; experiment: FACS on cells expressing the CXCR5 construct
T6 construct: whole, on cells; also called hCXCR5-mL2-mL3

[11] = molecular target: T7, XC255; experiment: FACS on cells expressing the CXCR5 construct
T7 construct: whole, on cells; also called hCXCR5-mN-mL3

ADCC Activity Average EC50, Human B Cells [1]: 2.01 pM
ADCC Activity Average EC50, Human Tfh Cells [1]: 0.11 pM
ADCC Activity Average EC50, Human Tfh-like Cells [1]: 4.82 pM
ADCC Activity Average EC50, NHP B Cells [2]: 15.3 pM
EC50 [3]: 6.6 pM
EC50 [4]: 10.6 pM
EC50 [5]: 1.32 pM
binding result [6]: no binding
GMFI [7]: 901 GMFI
GMFI [8]: 14600 GMFI
GMFI [9]: 21600 GMFI
GMFI [10]: 11500 GMFI
GMFI [11]: 1320 GMFI
B1: Afucosyl humanized 11G2 154/155 (antibody, human IgG1, kappa, V domains shown)
VH: EVQLVESGGGLVQPGGSLRLSCAASGFTFTDFYMSWVRQAPGKGLEWVGFIRNKANGYTTEYSASVKGRFTISRDNAKNSLYLQMNSLRAEDTAVYYCARVYGSTLHYWGQGTLVTVSS
VL: DIQMTQSPSSLSASVGDRVTITCRASESVEYHGTSLMHWYQQKPGKAPKLLIYAASNVESGVPSRFSGSGSGTDFTLTISSLQPEDFATYYCQQSRKVPWTFGQGTKVEIKR
modifications: afucosylated Fc glycan (Asn297)
notes: also called afucosyl h11G2 XC154/XC155; afucosylated h11G2 VL XC154/VH XC155

ADCC Activity Average EC50, Human B Cells [1]: 564 pM
ADCC Activity Average EC50, Human Tfh Cells [1]: 1.55 pM
ADCC Activity Average EC50, NHP B Cells [2]: 115 pM
EC50 [3]: 17.9 pM
EC50 [4]: 8.46 pM
EC50 [5]: 6.95 pM
B2: Chimeric 11G2 (antibody, human IgG1, kappa, V domains shown)
VH: EVKLVESGGGLVQPGGSLRLSCATSGFTFTDFYMSWVRQPPGRALEWLGFIRNKANGYTTEYSASVKGRFTISRDNSQSILYLQMNTLRAGDSATYYCVRVYGSTLHYWGQGTILTVSS
VL: DVVVTQSPDSLAVSLGQRATISCRASESVEYHGTSLMHWYQQKPGQPPKLLIYAASNVESGVPARFSGSGSGTDFSLNIHPVEEGDIAMYFCQQSRKVPWTFGGGTKLEIKR
notes: mouse V regions on human IgG1/kappa; also called 11G2 (chimeric)

ADCC Activity Average EC50, Human B Cells [1]: 380 pM
EC50 [3]: 65.6 pM
binding result [6]: no binding
GMFI [7]: 1180 GMFI
GMFI [8]: 13300 GMFI
GMFI [9]: 22400 GMFI
GMFI [10]: 11400 GMFI
GMFI [11]: 1950 GMFI
B3: 2C9 (reference antibody) (antibody, human IgG1, kappa, V domains shown)
VH: EVQLVESGGGLVKPGGSLRLSCAASGFTFSTNAMNWVRQAPGKGLERVARIRSKSNNYATYYADSVKDRFTISRDDSKNTLYLQMNSLKTEDTAVYYCVTMIPFAYWGQGTLVTVSS
VL: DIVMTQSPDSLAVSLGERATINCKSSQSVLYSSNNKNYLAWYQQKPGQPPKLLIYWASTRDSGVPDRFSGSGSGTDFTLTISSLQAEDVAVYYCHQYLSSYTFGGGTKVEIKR
notes: fucosylated
